Results as given in publication PMC2917274, “Structure of Staphylococcus aureus adenylosuccinate lyase (PurB) and assessment of its potential as a target for structure-based inhibitor discovery” (Acta Crystallographica Section D: Biological Crystallography, 2010).

T1: SaPurB (Staphylococcus aureus, UniProt Q7A0G9)
T1 construct: gene purB; full length (domains described over residues 1-431); N-terminal His tag removed by TEV protease (modified pET15b); expressed in E. coli BL21(DE3) pLysS; dimer in gel filtration, homotetramer in crystal, each active site from three subunits
T1 sequence (Q7A0G9 1-431): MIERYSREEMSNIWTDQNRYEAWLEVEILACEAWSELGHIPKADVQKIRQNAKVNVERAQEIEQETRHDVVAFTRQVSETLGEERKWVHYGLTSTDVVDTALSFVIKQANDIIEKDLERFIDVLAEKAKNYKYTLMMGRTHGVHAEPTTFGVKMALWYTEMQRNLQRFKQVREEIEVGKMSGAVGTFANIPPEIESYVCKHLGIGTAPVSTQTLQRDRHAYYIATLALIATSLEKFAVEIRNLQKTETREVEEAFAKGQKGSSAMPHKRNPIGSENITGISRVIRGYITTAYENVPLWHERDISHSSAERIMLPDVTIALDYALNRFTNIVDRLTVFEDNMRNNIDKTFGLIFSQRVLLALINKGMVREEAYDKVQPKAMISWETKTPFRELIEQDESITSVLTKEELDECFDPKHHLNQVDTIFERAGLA


Assays:
SaPurB = molecular target: T1, SaPurB; assay: X-ray crystal structure, […] Å; assay type: binding; conditions: co-crystallized with 25 mM AMP, pH 6.2, 293 K; active site; oxalate tentatively modelled nearby
[1] = molecular target: the molecule itself; assay: crystal structure; 2.5 A, space group I222, one chain per asymmetric unit, tetramer built by crystallographic twofold axes; with AMP and oxalate; crystals at 293 K from 45% PEG 200, 0.2 M NaCl, 0.1 M sodium phosphate pH 6.2
[2] = molecular target: the molecule itself; assay: SEC; Superdex 200 26/60, 50 mM Tris-HCl, 250 mM NaCl pH 7.5, column calibrated with molecular-weight standards; final stage of purification

Row | Molecule | X-ray crystal structure, 2.5 Å (SaPurB) | stoichiometry N [1] | stoichiometry N [2]
1 | Nc1ncnc2c1ncn2[C@@H]1O[C@H](COP(=O)(O)O)[C@@H](O)[C@H]1O [AMP] | The structure of AMP in the active site of SaPurB | – | –
2 | Staphylococcus aureus adenylosuccinate lyase (PurB) (enzyme, UniProt Q2FFI7 1-431, looked up, domains I-III span residues 1-431; theoretical subunit mass 49.6 kDa; Vector pET15b changed to carry a TEV site in place of the thrombin site; Dimer by gel filtration, tetramer in the crystal; also called SaPurB) MIERYSREEMSNIWTDQNRYEAWLEVEILACEAWSELGHIPKADVQKIRQNAKVNVERAQEIEQETRHDVVAFTRQVSETLGEERKWVHYGLTSTDVVDTALSFVIKQANDIIEKDLERFIDVLAEKAKNYKYTLMMGRTHGVHAEPTTFGVKMALWYTEMQRNLQRFKQVREEIEVGKMSGAVGTFANIPPEIESYVCKHLGIGTAPVSTQTLQRDRHAYYIATLALIATSLEKFAVEIRNLQKTETREVEEAFAKGQKGSSAMPHKRNPIGSENITGISRVIRGYITTAYENVPLWHERDISHSSAERIMLPDVTIALDYALNRFTNIVDRLTVFEDNMRNNIDKTFGLIFSQRVLLALINKGMVREEAYDKVQPKAMISWETKTPFRELIEQDESITSVLTKEELDECFDPKHHLNQVDTIFERAGLA | – | 4 | 2
